Reference: article PMC3564914, “Transcriptome analysis of bitter acid biosynthesis and precursor pathways in hop (Humulus lupulus)” (BMC Plant Biology, 2013)

B1: HlBCAT1 (Humulus lupulus) (protein)
chain: SSTSLAKSSLKQSCELSCKSNTEPSNMDWDKLGFKLMPTDYVYSMKCSNEGNFEQGRLELHGNIELSPAAAVLNYGQGIFEGTKAYRKEDGSLLLFRPDQNGVRMRIGAERMCMPSPSVDQFVDAVKQTAIANRRWVPPSGKGSLYIRPLLMGTGAVLGVAPAPQYTFLAYASPVGNYFKEGLAPLRLYVEDEFDRASPGGTGFVKTIGNYSRCLAALSRAKNKGFSDVLFLDSVHKKYVEELSSCNIFIVQGNQISTPAANGTILSGVTRSSIIEIARDHGFKVEERKIAVDELMEAEEVFCTGTAVGVASVGSITYHNKRVEFKTGSQSVSQKFYSTLIGIQTGVVEDKKGWIVEID
notes: N-terminal vector His tag (pHIS8/GW), E. coli BL21(DE3) Rosetta2 pLysS, Talon purified
B2: HlBCAT2 (Humulus lupulus) (protein)
chain: NATLSDTYSETVELADIDWDNLGFGFLPTDYMYNMKCAQGESFSNGELQRFGNIELSPSAGVLNYGQGLFEGLKAYRKEDGNILLFRPEENALRMRLGAERMCMPSPTVDQFVDAVKATVLANKRWIPPVGKGSLYIRPLLMGSGAVLGLAPAPEYTFLIYVSPVGNYFKEGVAPIHLIVEDNLHRATPGGTGGVKTIGNYAAVLKAQSAAKEQGYSDVLYLDCVHKKYLEEVSSCNIFVVKGNLIFTPAIKGTILPGITRKSIIDVARTLGFQVEERLVHVDELLDADEVFCTGTAVVVSPVGSITYHGERVPYNEGGVGAVSQQLYSALTRLQMGFIKDNMNWTVELS
notes: as for B1

Tests used:
Experiment in all cases: purified protein
Type in all cases: biochemical, Humulus lupulus
purified protein [1] = substrate: N[C@@H](CCC(=O)O)C(=O)O; settings: anabolic direction, 0.5 mM ketoisovalerate, 50 μM PLP, 100 mM ammonium chloride, Tris HCl pH 8.5, 22°C
purified protein [2] = substrate: CC(C)[C@H](N)C(=O)O; settings: catabolic direction, 2 mM 2-oxoglutarate, 50 μM PLP, Tris HCl pH 8.5, 22°C
purified protein [3] = substrate: CC(C)C(=O)C(=O)O; settings: anabolic direction, 2 mM glutamate, 50 μM PLP, 100 mM ammonium chloride, Tris HCl pH 8.5, 22°C
purified protein [4] = substrate: CC(C)CC(=O)C(=O)O; settings: anabolic direction, 2 mM glutamate, 50 μM PLP, 100 mM ammonium chloride, Tris HCl pH 8.5, 22°C
purified protein [5] = substrate: CC[C@H](C)C(=O)C(=O)O; settings: anabolic direction, 2 mM glutamate, 50 μM PLP, 100 mM ammonium chloride, Tris HCl pH 8.5, 22°C
purified protein [6] = substrate: CC[C@H](C)[C@H](N)C(=O)O; settings: catabolic direction, 2 mM 2-oxoglutarate, 50 μM PLP, Tris HCl pH 8.5, 22°C
purified protein [7] = substrate: CC(C)C[C@H](N)C(=O)O; settings: catabolic direction, 2 mM 2-oxoglutarate, 50 μM PLP, Tris HCl pH 8.5, 22°C
purified protein [8] = substrate: O=C(O)CCC(=O)C(=O)O; settings: catabolic direction, 2 mM leucine, 50 μM PLP, Tris HCl pH 8.5, 22°C

Protein	Km (purified protein [1])	Vmax (purified protein [1])	Km (purified protein [2])	Vmax (purified protein [2])	Km (purified protein [3])	Vmax (purified protein [3])	Km (purified protein [4])	Vmax (purified protein [4])	Km (purified protein [5])	Vmax (purified protein [5])	Km (purified protein [6])	Vmax (purified protein [6])	Km (purified protein [7])	Vmax (purified protein [7])	Km (purified protein [8])	Vmax (purified protein [8])
B1	720 ± 55.59 µM	5.59 µmol/min/mg	340 ± 90.94 µM	12.6 µmol/min/mg	99 ± 6.53 µM	4.23 µmol/min/mg	35 ± 3.27 µM	4.5 µmol/min/mg	99 ± 10.75 µM	2.95 µmol/min/mg	230 ± 26.94 µM	19.4 µmol/min/mg	40 ± 9.20 µM	4.84 µmol/min/mg	30 ± 5.39 µM	4.5 µmol/min/mg
B2	690 ± 88.51 µM	136 µmol/min/mg	130 ± 27.74 µM	23.3 µmol/min/mg	200 ± 11.72 µM	96.4 µmol/min/mg	120 ± 11.43 µM	119 µmol/min/mg	160 ± 11.63 µM	84.7 µmol/min/mg	250 ± 41.07 µM	88.1 µmol/min/mg	280 ± 69.56 µM	43.4 µmol/min/mg	210 ± 58.86 µM	36.9 µmol/min/mg
